Earlier results, collected in publication PMC11743636.

How the values were obtained:
[1] = biological target: sIL-6R (Homo sapiens) (UniProt P08887)
[2] = biological target: sgp130 (Homo sapiens) (UniProt P40189)
Chain of sgp130 (Homo sapiens) (P40189 23-619): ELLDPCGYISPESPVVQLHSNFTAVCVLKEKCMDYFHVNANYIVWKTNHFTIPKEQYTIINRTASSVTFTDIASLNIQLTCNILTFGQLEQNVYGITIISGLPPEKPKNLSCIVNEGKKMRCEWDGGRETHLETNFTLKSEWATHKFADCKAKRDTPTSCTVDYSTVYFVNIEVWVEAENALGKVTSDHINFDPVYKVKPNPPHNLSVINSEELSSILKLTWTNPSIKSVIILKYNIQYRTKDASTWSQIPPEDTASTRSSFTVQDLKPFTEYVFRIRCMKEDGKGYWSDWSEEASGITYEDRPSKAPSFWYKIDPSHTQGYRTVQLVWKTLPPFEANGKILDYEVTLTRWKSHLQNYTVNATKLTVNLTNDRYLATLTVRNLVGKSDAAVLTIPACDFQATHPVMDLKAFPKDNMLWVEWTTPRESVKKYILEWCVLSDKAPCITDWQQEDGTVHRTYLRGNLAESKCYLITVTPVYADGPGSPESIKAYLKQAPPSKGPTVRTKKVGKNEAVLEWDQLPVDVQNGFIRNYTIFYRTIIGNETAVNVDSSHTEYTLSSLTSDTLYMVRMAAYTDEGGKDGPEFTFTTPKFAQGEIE

Chain of sIL-6R (Homo sapiens) (P08887 20-355): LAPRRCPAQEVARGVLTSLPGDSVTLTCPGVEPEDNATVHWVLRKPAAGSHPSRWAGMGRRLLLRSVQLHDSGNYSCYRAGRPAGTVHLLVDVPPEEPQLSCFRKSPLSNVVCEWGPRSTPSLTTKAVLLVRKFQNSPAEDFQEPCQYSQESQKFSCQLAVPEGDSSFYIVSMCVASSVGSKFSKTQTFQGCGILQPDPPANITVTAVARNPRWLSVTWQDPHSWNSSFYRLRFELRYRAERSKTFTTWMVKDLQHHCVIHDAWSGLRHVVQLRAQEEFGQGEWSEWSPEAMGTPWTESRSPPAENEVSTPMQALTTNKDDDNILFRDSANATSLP

| Substance | Kd [1] | Kd [2] |
| --- | --- | --- |
| IL-6 (from UniProt P05231) | 0.5 nM | – |
| IL-6/sIL-6R complex (from UniProt P05231) | – | 0.05 nM |
